Here are results for three molecules from PMC3701624, “Three-Dimensional Structure of Human NLRP10/PYNOD Pyrin Domain Reveals a Homotypic Interaction Site Distinct from Its Mouse Homologue” (PLoS ONE, 2013).

Data set [1] addresses T1, MBP-huNLRP10ΔPYD (Arg103-Ile655) (Homo sapiens (Human), UniProt Q86W26).
T1 chain: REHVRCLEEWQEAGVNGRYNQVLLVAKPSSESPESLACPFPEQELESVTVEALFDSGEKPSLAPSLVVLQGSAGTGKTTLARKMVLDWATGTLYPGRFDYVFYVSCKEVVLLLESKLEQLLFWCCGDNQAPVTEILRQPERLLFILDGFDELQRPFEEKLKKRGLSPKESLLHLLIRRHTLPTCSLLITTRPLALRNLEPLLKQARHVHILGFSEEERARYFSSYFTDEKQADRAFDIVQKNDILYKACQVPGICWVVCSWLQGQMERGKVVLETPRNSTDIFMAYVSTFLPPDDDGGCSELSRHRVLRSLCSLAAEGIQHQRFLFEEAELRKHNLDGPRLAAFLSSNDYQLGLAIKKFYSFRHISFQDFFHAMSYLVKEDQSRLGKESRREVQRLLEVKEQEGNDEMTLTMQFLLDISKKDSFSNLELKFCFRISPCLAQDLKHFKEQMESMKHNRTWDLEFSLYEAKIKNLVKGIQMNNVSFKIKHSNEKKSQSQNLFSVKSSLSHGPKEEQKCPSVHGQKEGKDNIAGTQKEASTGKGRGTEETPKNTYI
Description: size-exclusion chromatography and pull-down (data not shown). For orientation: SEC sorts molecules by how far they enter the pores of the column.

Substrate in data set [2]: Nc1nc2c(ncn2[C@@H]2O[C@H](COP(=O)(O)OP(=O)(O)OP(=O)(O)O)[C@@H](O)[C@H]2O)c(=O)[nH]1
Description: malachite green phosphate release, Lineweaver-Burk. Format: biochemical, Homo sapiens. As to conditions: 50 mM Tris-HCl pH 8.0, 10 mM MgCl2, 37°C, 3 µM protein, 0.1–3.2 mM nucleotide. An excerpt: (§1) malachite green phosphate release, Lineweaver-Burk on MBP-huNLRP10 (huNLRP10, PYNOD)

Substrate in data set [3]: Nc1ncnc2c1ncn2[C@@H]1O[C@H](COP(=O)(O)OP(=O)(O)OP(=O)(O)O)[C@@H](O)[C@H]1O
Description: malachite green phosphate release, Lineweaver-Burk. Format: biochemical, Homo sapiens. As to conditions: 50 mM Tris-HCl pH 8.0, 10 mM MgCl2, 37°C, 3 µM protein, 0.1–3.2 mM nucleotide.
From the text: as §1

Substrate in data set [4]: Nc1nc2c(ncn2[C@@H]2O[C@H](COP(=O)(O)OP(=O)(O)OP(=O)(O)O)[C@@H](O)[C@H]2O)c(=O)[nH]1
The data set can be described thus: malachite green phosphate release, Lineweaver-Burk. Format: biochemical, Homo sapiens. As to conditions: 50 mM Tris-HCl pH 8.0, 10 mM MgCl2, 37°C, 3 µM protein, 0.1–3.2 mM nucleotide. An excerpt:
(§2) malachite green phosphate release, Lineweaver-Burk on MBP-huNLRP10ΔPYD (huNLRP10ΔPYD)
The source holds these as a separate data set.

Substrate in data set [5]: Nc1ncnc2c1ncn2[C@@H]1O[C@H](COP(=O)(O)OP(=O)(O)OP(=O)(O)O)[C@@H](O)[C@H]1O
The data set can be described thus: malachite green phosphate release, Lineweaver-Burk. Format: biochemical, Homo sapiens. As to conditions: 50 mM Tris-HCl pH 8.0, 10 mM MgCl2, 37°C, 3 µM protein, 0.1–3.2 mM nucleotide.
From the text: as §2
The source holds these as a separate data set.

As usually defined, the Km is the concentration of substrate that gives half-maximal velocity.

B1: human NLRP10/PYNOD pyrin domain (residues 1-100) (protein)
chain: MAMAKARKPREALLWALSDLEENDFKKLKFYLRDMTLSEGQPPLARGELEGLIPVDLAELLISKYGEKEAVKVVLKGLKVMNLLELVDQLSHICLHDYRE
As for B1, the binding result in data set [1] is listed as “no binding”.

B2: MBP-huNLRP10 (huNLRP10, PYNOD) (Homo sapiens) (protein)
chain: MAMAKARKPREALLWALSDLEENDFKKLKFYLRDMTLSEGQPPLARGELEGLIPVDLAELLISKYGEKEAVKVVLKGLKVMNLLELVDQLSHICLHDYREVYREHVRCLEEWQEAGVNGRYNQVLLVAKPSSESPESLACPFPEQELESVTVEALFDSGEKPSLAPSLVVLQGSAGTGKTTLARKMVLDWATGTLYPGRFDYVFYVSCKEVVLLLESKLEQLLFWCCGDNQAPVTEILRQPERLLFILDGFDELQRPFEEKLKKRGLSPKESLLHLLIRRHTLPTCSLLITTRPLALRNLEPLLKQARHVHILGFSEEERARYFSSYFTDEKQADRAFDIVQKNDILYKACQVPGICWVVCSWLQGQMERGKVVLETPRNSTDIFMAYVSTFLPPDDDGGCSELSRHRVLRSLCSLAAEGIQHQRFLFEEAELRKHNLDGPRLAAFLSSNDYQLGLAIKKFYSFRHISFQDFFHAMSYLVKEDQSRLGKESRREVQRLLEVKEQEGNDEMTLTMQFLLDISKKDSFSNLELKFCFRISPCLAQDLKHFKEQMESMKHNRTWDLEFSLYEAKIKNLVKGIQMNNVSFKIKHSNEKKSQSQNLFSVKSSLSHGPKEEQKCPSVHGQKEGKDNIAGTQKEASTGKGRGTEETPKNTYI
notes: full length (Met1-Ile655), N-terminal His6-MBP fusion (pETM41), tag kept; E. coli BL21(DE3)
In the case of B2, the figures for the Km in data set [2] and in data set [3] were 295.6 ± 11.0 µM and 169.3 ± 7.3 µM, respectively.

B3: MBP-huNLRP10ΔPYD (huNLRP10ΔPYD) (Homo sapiens) (protein)
chain: T1 chain
notes: NOD only, pyrin domain removed (Arg103-Ile655), N-terminal His6-MBP fusion (pETM41), tag kept; E. coli BL21(DE3)
On to B3, for which the values for the Km in data set [4] and in data set [5] were 193.7 ± 17.1 µM and 201.9 ± 1.9 µM, respectively.
